Data from the DeepSol protein solubility set.

Assay: soluble on expression in E. coli; label from the status in PepcDB or PDB records

Row | Sequence | soluble on expression in E. coli
1 | MSLIEERLKHYLEKQIPARDQYIEQMEREAHEQQVPIMDLLGMESLLHLLKMAAPARILEIGTAIGYSAIRMAQALPEATIVSIERDERRYEEAHKHVKALGLESRIELLFGDALQLGEKLELYPLFDVLFIDAAKGQYRRFFDMYSPMVRPGGLILSDNVLFRGLVAETDIEHKRHKQLATKIDTYNQWLLEHPQYDTRIFPVGDGIAISIKRETKGDTDDEKAEGHHHHHH | soluble
2 | AHHHHHHGSILLLTGMPGSGKGVVAREFEKRGIPVVSMGDAIREEAEKRGIPKTPEGLKEVSLKVREELGPGAVAILTVPKVRKLLELNPVVVVEGVRSPYEVEEFRKEFKNEEIKVVAIHSSPKSRFQRLLKRQRSDDPKTWEEFVERDRKELNFGIGEVIALADYIIVNECGFDQLKANIEKLISMIFDGKI | soluble
3 | MMDITTLDQFKDEIYGVKGTPRRDNLERELETLRIGVQIRNARQKKEMTQAQLAERINKKRTFISKVENDGGNLTLKTLIDIVERGLGGKLNIEVKI | not soluble
4 | MGSDKIHHHHHHLNVYHASLEEAQADPRLKGLQGASPFERLDWLALLANECLDPARARLSVVTSGECMAALPWIEREGRIDALANWYSFFVSPLGDSALLSRIVEALPHGRAAFAPLPEEDARLLARAFRNAGWCTLAAPCDVNHVLPVEGRSFAQYWAERPGALRETVRRKSRKGEVSLRILTEFSPEDWEAYETIYRLSWKPGEGSPAFLRKWAEADGEAGRLRLGIAEIDGAAVAAQFWTVEGGTAYIHKLAHDERFRKSSPGTLLTAAMFEHVIDRDRVDLIDFGTGDDPYKRDWMDDVRSRWSVQAWRPGAVRHWPSLALALARTLAGQIMRPLVSRNGDG | not soluble
5 | MSLSDAISFRPMTEADLDAVLKIEYAAFSHPWTRGIFSEGLKNYHCWLMFEGSQQVGHGVIQIILDEAHLLNITVKPESQGRGLGLRLLEHLMREAAGHQARECFLEVRASNQAAYRLYERYGFNEIGRRRDYYPAVGGREDALVMACTLFDEGHHHHHH | soluble
6 | MDHIELRKKIGQAIRTARIRRGLVMRDLAEAGGVSTGAVGNWERGANAIAMEHLQAISQKLRIDPVALSNGSLRYLDEEEALADAEQVTDFGPAPTGPMDVEVLGVAVGGDDGDFTLNGEVSGYVRRPPGIAHLRKVFALHVLSDSMIPRYDPGELIYVGGREAVAGDHVVIEMFPDEGATVGKAYVKKLKGRTKGAIVCEQYNPPKELQFDQYAIKNMWRIIPLRELLGY | not soluble
7 | MNWHPAACKISAKGGYLRVIIDASNVAHSRKNDEEKPCIENILSAAEELEKLGYEPVIIADASLRHEIDDKEQFRKLLEEGKFQQVPSGTSADHFILKMAEEEDAKILSNDVFRDYKDEFQDINSRRIPYTFREDKILIGTSGKPKKVKNILQKICNEALREFERKRIDAYKVKRGKKLSGIAIAKEAIDRISRSQEEGLEPRLEGIFMKLPLFERFMSMVEEVERTSNYIIFVLVHPKDYRDAVKYAGNIAVTVGDRLKLEHAPLVAVRNDLFLKPGTFELNIMYSEDVMEEAPYNVNITINDHDYSFVKKNSRNIASTLAARIGSWRFPIVSVKPSMLLEKPGEFEVVLEKGGNDLEHHHHHH | soluble
8 | MKYQVSLLAVKDIEVSKKFYKELFEQEIELDLGKNVTFKGGFAIQEDFAWLTGINPDTIIQKSNNMELYFEVDDFDEFIEKLNYYKDVEFVHKPLKHEWQQRVVRIYDPDKHIIEIGESMEVIARRYLSEGYSVEETSKIIQHPIEFVKQCENSKELEHHHHHH | soluble
9 | MGSDKIHHHHHHMDKEEQYLLFALSTPMEVLYIGNEPSHTSPAMYTGIPAVDLSDSWGIDNREDLIQTIYRMTDDGHAADLAPFYIRWFTLSPRQWREFTAQFGEQGQIYARFVAETALCCGRGGIKAWDYVRMGFLCRMGVLNQWLTEEESLWLQSRIYARAYYFYDGWTQYFAAYSLGRLYWQAKGDTIQAYFAHLKYDASGARMFNELASTTESYYAQLPWRPLNEQPTCPETLKGVSDL | not soluble
10 | GPGSMSLLNTTLQTLVVRLRDMSGNVTQQKLHNRVFDAYEAKSLVFEAISPEQQAVMQQFGTIPSQHPAGQPVLLDGWADLLTVHREDNLYQLLPRRAKNNASYSTMRAICCSAGSPFTMDHRVDPIDYKFVFRAADMEVRNKFNATNQDKIPPTIWFDGILSAPNDSGLVSCHNSLSPAHINNLAGTYQFLKEWSNEPPEGDRHRQLKEMYSNLLSKRTHLFIGSSSVPGREILNYARSKNVFVYAKRGMHYVFHA | not soluble
11 | MNVILFDGICNLCNGAVTFVVKRDRKGLFRFVSLQSETGKSLLKRYAVESTNKTLYYFRNNRCYSKSTAILYILKDLGGFWQCLYPLILIPAKLRDAIYLLVSKYRYRIFGKADSCIKPFGFSSEESKRSDLEHHHHHH | not soluble
12 | MAHHHHHHMKQRTNVALKRWYASERTKKANPLILISNSHNIHFNLSLENFLLNNYSDLLKHLNGNSIERYDDPVLFLWRNNRSIIIGKNQNIWSECNLENIKEDNVLVARRFTGGGAVYHDLQNLCFTFLNNSLSTDDNFSIILKTLKRHFAIEAKRQGRNDITVNDRKCSGSAFKKMKNGFLHHGTIMVNLEKDVLSRYLTPDKIKYTKHGVSSVNARTINLKEINPKITCQDLCYALIKEFQAFYKNGVPNEGGEASCSATLKVEDYTGGEKIANPPEQVSSNRNANLSEGEKSVANLIDHSSPILKHFNIHYVDTNESITKNPEFLKYLNLLKDWDWCYGKSPKFQNRLCKQFPFGKFEVFFNVSDGMIKDGNVFSDCLDINLVEQLKFIFNNDVRYSKDSVASFLRGLQVENEGSLREVTDWILQEL | not soluble
13 | MYMAQPGHIDHIKQINAGRVYKLIDQKGPISRIDLSKESELAPASITKITRELIDAHLIHETTVQEAISRGRPAVGLQTNNLGWQFLSMRLGRGYLTIALHELGGEVLIDTKIDIHEIDQDDVLARLLFEIEEFFQTYAAQLDRVTSIAITLPGLVNSEQGIVLQMPHYNVKNLALGPEIYKATGLPVFVANDTRAWALAEKLFGHSQDVDNSVLISIHHGLGAGIVLDGRVLQGRHGNIGELGHIQIDPQGKRCHCGNYGCLETVASSQAIRDQVTARIQAGEPSCLATVEEISIEDICAAAADGDPLAVDVIQQLGRYLGAAIAIVINLFNPEKILIGGVINQAKSILYPSIEQCIREQSLPVYHQDLKLVESRFYKQATMPGAALIKQALYDGLLLMKVVEG | soluble
14 | MESSVDEEALHQLYLWVDNIPLSRPKRNLSRDFSDGVLVAELIKFYFPKMVEMHNYVPANSLQQKLSNWGHLNRKVLNKLNFSVPDDVMRKIAQCSPGVVELVLIPLRQRLEERQRRQKLGVGSLQELAPQDSSGYMDMGLPQKVRGEGAPALGEQLREGRPLASRPPGYNQALQGDPSFVLQIAEKEQELLASQETVQVLQMKVKRLEHLLQLKNVRIDDLSRRLQQAERKQR | soluble
15 | MKPDETPMFDPSLLKEVDWSQNTATFSPAISPTHPGEGLVLRPLCTADLNRGFFKVLGQLTETGVVSPEQFMKSFEHMKKSGDYYVTVVEDVTLGQIVATATLIIEHKFIHSCAKRGRVEDVVVSDECRGKQLGKLLLSTLTLLSKKLNCYKITLECLPQNVGFYKKFGYTVSEENYMCRRFLK | soluble
16 | MMKKSSDCTEILVGKAASMDGSTIVARNEDGYGPINPIKFVVHPAVDQTGASFTSAVTGVEVPLPDHAYRYTGTPQADQSDGQYEEAGINELNVGMSATETTATNARVLGYDPLVDDGINEEAMITLVLPYIKSAKEGAARLGALIEKYGTGESNSIAFNDQNDVWYLETAGGHHWAAMRLPEDTYAIAPNQTLMQTVDLQDTDNFLVASDLVDFVAQHHLNPTPDTFNFREIFGTHGEDDAYYNTPRTWYGQKLFNPEITDQQPTDQDMPFTRKPAKKLAIEDVQFFLSSHYNGTPYDPFGTYASGSAADQRKYRPIAMDRNQCSSILQIRNDVPADHAAIQWIAMGFFAYAPYVPFFTNITDTPADYQSTTAAVDVANVYWLNKTLSVLIEPHFHDYVEAVNAFRDGCQSYARSRVAATDAAVSGNVSAFLTQSNQITAGEISKRTRELFDTIVKHGLLLSKTAWEKGQNL | not soluble
